Positions count from the first letter of the chain named.
Columns and labels:
[1] = target: T1, MBP-Tin R321N HD (Drosophila melanogaster, UniProt P22711 301-360, R321N); test: EMSA; 1.5 ug protein, equal to WT; EMSA: 40 mM KCl, 15 mM HEPES pH 7.9, 1 mM EDTA, 0.5 mM DTT, 5% glycerol, 4 ug poly-dIdC; temperature not stated; conditions: protein: recombinant; tags: N-terminal MBP; label: radioactive (probe); only one strand given
T1 sequence: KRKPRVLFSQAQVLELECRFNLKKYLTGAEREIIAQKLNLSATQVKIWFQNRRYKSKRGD

[2] = target: T2, MBP-Tin HD (WT) (Drosophila melanogaster, UniProt P22711 301-360); test: EMSA; 1.5 ug protein; competed by 300-fold excess unlabelled WT; EMSA: 40 mM KCl, 15 mM HEPES pH 7.9, 1 mM EDTA, 0.5 mM DTT, 5% glycerol, 4 ug poly-dIdC; temperature not stated; conditions: protein: recombinant; tags: N-terminal MBP; label: radioactive (probe); only one strand given
T2 sequence: T1 sequence with N21R

B1: Mp Tin1 site (dsDNA)
DNA 1: GGACTCTTTGGCTGAAGTGTCCGGTGAAA
DNA 2: TTTCACCGGACACTTCAGCCAAAGAGTCC
For B1, the binding signal [1] was 7 % of WT band intensity and the binding result [2] was “binds”.
